According to PMC12162846, “Tripartite motif-containing protein 26 promotes colorectal cancer growth by inactivating p53” (Cell Death and Differentiation, 2025):

Target: T1, His-p53 (UniProt P04637 1-393)
T1 construct: p53; also called Purified p53; source: purified
Test: pull-down; GST-TRIM26 fragments on beads, incubated with His-p53 or His-MDM2 at RT for 40 min; bound protein detected by Western blot with His antibody
Conditions: both partners purified

T1 sequence (P04637 whole entry): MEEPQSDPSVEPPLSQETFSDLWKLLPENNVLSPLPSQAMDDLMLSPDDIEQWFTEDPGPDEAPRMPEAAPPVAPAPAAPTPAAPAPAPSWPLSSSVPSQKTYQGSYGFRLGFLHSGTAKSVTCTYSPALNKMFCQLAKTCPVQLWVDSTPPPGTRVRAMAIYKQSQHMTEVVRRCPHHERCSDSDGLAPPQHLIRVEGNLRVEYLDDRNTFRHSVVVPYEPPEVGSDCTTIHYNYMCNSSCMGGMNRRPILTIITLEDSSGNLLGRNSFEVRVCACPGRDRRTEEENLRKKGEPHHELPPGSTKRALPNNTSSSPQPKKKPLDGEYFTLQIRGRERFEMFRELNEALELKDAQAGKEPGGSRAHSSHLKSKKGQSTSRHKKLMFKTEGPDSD

binding result: binds
B1: GST-TRIM26 C-terminal PRYSPRY domain (aa301-539) (domain or fragment, UniProt Q12899 301-539, looked up)
chain: QGKLLRDLEYKTVSVTLDPQSASGYLQLSEDWKCVTYTSLYKSAYLHPQQFDCEPGVLGSKGFTWGKVYWEVEVEREGWSEDEEEGDEEEEGEEEEEEEEAGYGDGYDDWETDEDEESLGDEEEEEEEEEEEVLESCMVGVARDSVKRKGDLSLRPEDGVWALRLSSSGIWANTSPEAELFPALRPRRVGIALDYEGGTVTFTNAESQELIYTFTATFTRRLVPFLWLKWPGTRLLLRP
notes: also called the C-terminal domain of TRIM26; source: purified GST-fusion protein on beads
